# According to the domain aggregation screens of Martell et al. (2025):
# Assay: soluble fraction after stress (log2 fold change); higher = more stays soluble; pooled small domains, quantitative proteomics
# Conditions: stress: 50 degC
# Procedure, shortened: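 Each library was heated to 50°C as a stress step. The libraries, made up of small protein domains, were pooled and analysed at high throughput by quantitative proteomics. The reported value is the base-two logarithm of the fold change in each protein's soluble amount after stress, taken as a measure of aggregation propensity. The higher the value, the more protein stays in solution.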
row,Sequence,soluble fraction (log2)
1,HMGWQPDPLTTRERLVAELATQASNAQIAEQLHLSVRTVEGHLAHVYTKLGITTRRELPAALAGAR,-0.891
2,HMLAQDVIVKQDGGTILSKVLEIGTQEIAYKKWNSQDGPVYKIAKDQVLSVNYQNGEVDRFA,0.00732
3,HMGERMELTLDNPREAIPVLDAMGFANYQVVDKEHIHIFERLNESALVNMELAKAGIPVKGISITSE,0.018
4,HMPQIDLYPFEVRIEQDNNAAEYAVRFLDVPNIIGSGASIDEAIVEARGNLKEYLDYLIDTNRDIPLPS,-0.412
5,HMFKDVTVPSVINKTEAEATNMLKGLNLVVSVEYEENANKSDGIVTAQNVNANKVIKEGETVTITVNKQP,0.00765
6,HMRKTLASTAYDSIKAGIVSGEINNNLLLSENTLAKILNMSRTPIREAIKRLEAESYLKSVDGVGLIVQE,-0.211
7,HMSRIDRKGLTSQIVNHLSKNPGKNFTLKQFFRNLKLNTHPLKMLAVDVLNKLLDTNFITRNEDGEFFLKA,0.337
8,HMNSNTIIFSQFLSEVDNGRVTQVQIQGNNIKGTLSNGKDFITYAPNDPNLIEKLTSKGVSISASPID,0.0608
9,HMYSVVGKKGIVIEDINYSTGTGQIKSEGEVWSAKTNEQINIPKGTEIEIESIDGVKVIVKPL,0.0184
10,HMQISMQNIASVKIDDLSDEQIQEFSTKYTAAGYSFPDVENVAKQKGMPSSEIEKLRQRVLTAQNTQEK,-0.163
11,HMSAVVAPLPGLIQNILVKVGDTVHAGQHVLTMEAMKMENEIQTNRDGIIKDIKVRIGDSVNEGDTLIIL,-0.0224
12,HMELNEIEFENLKESIIIHLEKESLSPHELVKHIQTIHPDKVTAVIQWMLENGFIKTDAGGQLTLVSK,0.135
13,HMGQISDESVLKEMVVQLIADNPKEVASYLGGKETLLQWFMGQVARATKGKADPQAVKQLLLDEFEKLK,0.092
14,HMNVEVDSIGDDDFLVKVSAGTSTEHRVTLTDAYWEQIWSSSLPKKEIISLSFAFLLEREPNSSIMRT,0.0604
15,HMFQTAADVAYRIISQKILDGEFPPGMKLSRRKMAEVTSVSVIPVIEALKKLEEDGLVESKPQWGSFVTI,-1.27
16,HMKALDTVLSEIPGLGPVRIKQLLKVFGSVDAIRKASLQDLQQIEGIGPKLAQTIYEYFHQP,≥ 0.62
17,HMAGTDLSERESEIAMLLLKGYPYKLIASRLYISESTVKSHVQNIYGKLGIHSRTELIEQFSAS,-0.558
18,HMSLTYTGKFILNHNNIDQSSFNINIYLVNKQTIIQITKPFYGNVLNIKFNEENDLIISPKQFS,-0.146
19,HMPKRYAGPDIIAIYGSDVFFRVGSGDGLMVIPVGRSMDNIEVVSVDAPRSVELMWKDGGPFTVPV,-0.165
20,HMRDQARQFFIDTWAKFQRHDALTPLEEKTAAIIALHPEYHRVLQNPESFITTDWRPESGDINPFMHL,-1.34
21,HMIEEIPYSQFMSMLEEGKIDKAEIYQDSIIFSTKPDEQGKAGYYSIAYMKDNVLADRLYDAGVEFTPII,-0.156
22,HMTFVHTQIEATKEWIISHPLDKHPAVAVVDSAGSIVIGEVDYISKSIVRLRFTAEFSGKAYL,-0.598
23,HMGRSTQVPGVEKMTYSQAVQLLHDHGFRVDIRDSLYRDDIKPGHVIEQFPKAKSIVKPGRKIFLYINAV,-1.32
24,HMAKINFTSDAIDIGMVTRNDIEMLSFYQNVLGLTKDMEIPFPGLGVVNKLSFGSGFIKILVL,-0.0122
25,HMIGDNNELFQKAQLTPREKEVALLLLQGETNSDIAKILYVGLSTVKKHISSIFEKTKVKSRTEFISKVR,-0.803
26,HMQDVVFTVDKDQTGAEIGDMLYEKGIISSPTTFRLALRLTGSMDKLQQGYYQIPQNASLRQVIALLQKG,-0.393
27,HMPLYKYYTSYQIEPGDTLTSIAQKYTINSDVSVQDYIDEVKKNNNLVSDKINSGSYLVVSYYSNEY,-2.35
28,HMAETLRLVGATNLNTLARARHPDDLAARNEFRRAIAQANPALFAGKSKVGSVSLPAGTVLALPPEV,0.184
